Source: US20240360201A1 (BIOCYTOGEN PHARMACEUTICALS BEIJING, published 2024)
Like-named read-outs stand apart in the source and are kept apart here.

B1: CT4-KN035-3A-knob-IgG1 (bispecific antibody)
heavy 1: EVQLVESGGGLVQPGGSLRLSCAASGFTFSSYTMSWVRQAPGKGLEWVATISRGGGYTSYPDSVKGRFTISRDNSKNTLYLQMNSLRAEDTAVYYCAREDYGSSYVHWFAYWGQGTLVTVSAASTKGPSVFPLAPSSKSTSGGTAALGCLVKDYFPEPVTVSWNSGALTSGVHTFPAVLQSSGLYSLSSVVTVPSSSLGTQTYICNVNHKPSNTKVDKKVEPKSCDKTHTCPPCPAPELLGGPSVFLFPPKPKDTLMISRTPEVTCVVVDVSHEDPEVKFNWYVDGVEVHNAKTKPREEQYNSTYRVVSVLTVLHQDWLNGKEYKCKVSNKALPAPIEKTISKAKGQPREPQVCTLPPSREEGGGGSGGGGSQVQLVESGGGLVQPGGSLRLSCAASGFTFSRRCMAWFRQAPGKERERVAKLLTTSGSTYLADSVKGRFTISRDNSKNTVYLQMNSLRAEDTAVYYCAADSFEDPTCTLVTSSGAFQYWGQGTLVTVSSGGGGSGGGGSVSLWCLVKGFYPSDIAVEWESNGQPENNYKTTPPVLDSDGSFFLYSKLTVDKSRWQQGNVFSCSVMHEALHNHYTQKSLSLSPGK
heavy 2: not shown
light: DIQMTQSPSFLSASVGDRVTITCRAGENIYSYLAWYQQKPGKAPKLLIYNARTLAEGVPSRFSGSGSGTEFTLTISSLQPEDFATYYCQHHYGSPRTFGGGTKLEIKRTVAAPSVFIFPPSDEQLKSGTASVVCLLNNFYPREAKVQWKVDNALQSGNSQESVTEQDSKDSTYSLSSTLTLSKADYEKHKVYACEVTHQGLSSPVTKSFNRGEC
notes: IgG1 with knobs-in-holes; KN035 on the knob chain only
B2: CT4-KN035-3A-hole-IgG1 (bispecific antibody)
heavy 1: EVQLVESGGGLVQPGGSLRLSCAASGFTFSSYTMSWVRQAPGKGLEWVATISRGGGYTSYPDSVKGRFTISRDNSKNTLYLQMNSLRAEDTAVYYCAREDYGSSYVHWFAYWGQGTLVTVSAASTKGPSVFPLAPSSKSTSGGTAALGCLVKDYFPEPVTVSWNSGALTSGVHTFPAVLQSSGLYSLSSVVTVPSSSLGTQTYICNVNHKPSNTKVDKKVEPKSCDKTHTCPPCPAPELLGGPSVFLFPPKPKDTLMISRTPEVTCVVVDVSHEDPEVKFNWYVDGVEVHNAKTKPREEQYNSTYRVVSVLTVLHQDWLNGKEYKCKVSNKALPAPIEKTISKAKGQPREPQVYTLPPSRCEGGGGSGGGGSQVQLVESGGGLVQPGGSLRLSCAASGFTFSRRCMAWFRQAPGKERERVAKLLTTSGSTYLADSVKGRFTISRDNSKNTVYLQMNSLRAEDTAVYYCAADSFEDPTCTLVTSSGAFQYWGQGTLVTVSSGGGGSGGGGSVSLSCAVKGFYPSDIAVEWESNGQPENNYKTTPPVLDSDGSFFLVSKLTVDKSRWQQGNVFSCSVMHEALHNHYTQKSLSLSPGK
heavy 2: not shown
light: DIQMTQSPSFLSASVGDRVTITCRAGENIYSYLAWYQQKPGKAPKLLIYNARTLAEGVPSRFSGSGSGTEFTLTISSLQPEDFATYYCQHHYGSPRTFGGGTKLEIKRTVAAPSVFIFPPSDEQLKSGTASVVCLLNNFYPREAKVQWKVDNALQSGNSQESVTEQDSKDSTYSLSSTLTLSKADYEKHKVYACEVTHQGLSSPVTKSFNRGEC
notes: IgG1 with knobs-in-holes; KN035 on the hole chain only; also called CT4-KN035-3A-kole
B3: PD1-KN035-3A-IgG1 (bispecific antibody)
heavy: EVQLVESGGGLVQPGGSLRLSCAASGFTFSSYSMSWVRQAPGKRLEWVAHISSGGSSTYYPDTVKGRFTISRDNSKNTLYLQMNSLRAEDTAMYYCTRQFYYGSSFWYFDVWGAGTTVTVSSASTKGPSVFPLAPSSKSTSGGTAALGCLVKDYFPEPVTVSWNSGALTSGVHTFPAVLQSSGLYSLSSVVTVPSSSLGTQTYICNVNHKPSNTKVDKKVEPKSCDKTHTCPPCPAPELLGGPSVFLFPPKPKDTLMISRTPEVTCVVVDVSHEDPEVKFNWYVDGVEVHNAKTKPREEQYNSTYRVVSVLTVLHQDWLNGKEYKCKVSNKALPAPIEKTISKAKGQPREPQVYTLPPSREEGGGGSGGGGSQVQLVESGGGLVQPGGSLRLSCAASGFTFSRRCMAWFRQAPGKERERVAKLLTTSGSTYLADSVKGRFTISRDNSKNTVYLQMNSLRAEDTAVYYCAADSFEDPTCTLVTSSGAFQYWGQGTLVTVSSGGGGSGGGGSVSLTCLVKGFYPSDIAVEWESNGQPENNYKTTPPVLDSDGSFFLYSKLTVDKSRWQQGNVFSCSVMHEALHNHYTQKSLSLSPGK
light: DNVLTQSPATLSVSPGERATLSCKASQSVDFDGDSYMNWYQQKPGQPPRLLIYAASNLESGIPARFSGSGSGTDFTLTISSVEPEDFATYYCQQSNEDPPTFGGGTKVEIKRTVAAPSVFIFPPSDEQLKSGTASVVCLLNNFYPREAKVQWKVDNALQSGNSQESVTEQDSKDSTYSLSSTLTLSKADYEKHKVYACEVTHQGLSSPVTKSFNRGEC
notes: IgG1
B4: 3F2-hIL7-3A (antibody)
heavy: QVQLQESGPGLVKPSETLSLTCTVSGYSITSGYNWHWIRQFPGNGLEWMGYIHHSSITNYNPSLKSRITISRDTSKNQFSLKLSSVTAADTATYYCAREGYDYDWFAYWGQGTLVTVSSASTKGPSVFPLAPSSKSTSGGTAALGCLVKDYFPEPVTVSWNSGALTSGVHTFPAVLQSSGLYSLSSVVTVPSSSLGTQTYICNVNHKPSNTKVDKKVEPKSCDKTHTCPPCPAPELLGGPSVFLFPPKPKDTLMISRTPEVTCVVVDVSHEDPEVKFNWYVDGVEVHNAKTKPREEQYNSTYRVVSVLTVLHQDWLNGKEYKCKVSNKALPAPIEKTISKAKGQPREPQVYTLPPSRDEGGGGSGGGGSDCDIEGKDGKQYESVLMVSIDQLLDSMKEIGSNCLNNEFNFFKRHICDANKEGMFLFRAARKLRQFLKMNSTGDFDLHLLKVSEGTTILLNCTGQVKGRKPAALGEAQPTKSLEENKSLKEQKKLNDLCFLKRLLQEIKTCWNKILMGTKEHGGGGSGGGGSVSLTCLVKGFYPSDIAVEWESNGQPENNYKTTPPVLDSDGSFFLYSKLTVDKSRWQQGNVFSCSVMHEALHNHYTQKSLSLSPGK
light: DIVLTQSPDFQSVTPKEKVTITCRASQSISNNLHWYQQKPDESPKLLIKYASQSISGIPSRFSGSGSGTDFTLTINSVEAEDFAMYFCQQSKSWPFTFGQGTRLEIKRTVAAPSVFIFPPSDEQLKSGTASVVCLLNNFYPREAKVQWKVDNALQSGNSQESVTEQDSKDSTYSLSSTLTLSKADYEKHKVYACEVTHQGLSSPVTKSFNRGEC
notes: IgG1
B5: ATOR1015-CD86 (ligand)
chain: APLKIQAYFNETADLPCQFANSQNLSLSELVVFWQDQENLVLNEVYLGKERFDSVDSKYMGRTSFDSDSWTLRLHNLQIKDKGRYQCIIHHKKPTGMINIHQMNSELSVLA
notes: Used as control captured on a protein A chip
B6: PDL1-CD86-3A-IgG1 (antibody)
heavy: EVQLLESGGGLVQPGGSLRLSCAASGFTFSSYIMMWVRQAPGKGLEWVSSIYPSGGITFYADTVKGRFTISRDNSKNTLYLQMNSLRAEDTAVYYCARIKLGTVTTVDYWGQGTLVTVSSASTKGPSVFPLAPSSKSTSGGTAALGCLVKDYFPEPVTVSWNSGALTSGVHTFPAVLQSSGLYSLSSVVTVPSSSLGTQTYICNVNHKPSNTKVDKKVEPKSCDKTHTCPPCPAPELLGGPSVFLFPPKPKDTLMISRTPEVTCVVVDVSHEDPEVKFNWYVDGVEVHNAKTKPREEQYNSTYRVVSVLTVLHQDWLNGKEYKCKVSNKALPAPIEKTISKAKGQPREPQVYTLPPSRDEGGGGSGGGGSAPLKIQAYFNETADLPCQFANSQNLSLSELVVFWQDQENLVLNEVYLGKERFDSVDSKYMGRTSFDSDSWTLRLHNLQIKDKGRYQCIIHHKKPTGMINIHQMNSELSVLAGGGGSGGGGSVSLTCLVKGFYPSDIAVEWESNGQPENNYKTTPPVLDSDGSFFLYSKLTVDKSRWQQGNVFSCSVMHEALHNHYTQKSLSLSPGK
light: QSALTQPASVSGSPGQSITISCTGTSSDVGGYNYVSWYQQHPGKAPKLMIYDVSNRPSGVSNRFSGSKSGNTASLTISGLQAEDEADYYCSSYTSSSTRVFGTGTKVTVLGQPKANPTVTLFPPSSEELQANKATLVCLISDFYPGAVTVAWKADGSPVKAGVETTKPSKQSNNKYAASSYLSLTPEQWKSHRSYSCQVTHEGSTVEKTVAPTECS
notes: IgG1
B7: PDL1-CD86-3A-IgG4 (antibody)
chain 1: EVQLLESGGGLVQPGGSLRLSCAASGFTFSSYIMMWVRQAPGKGLEWVSSIYPSGGITFYADTVKGRFTISRDNSKNTLYLQMNSLRAEDTAVYYCARIKLGTVTTVDYWGQGTLVTVSSASTKGPSVFPLAPCSRSTSESTAALGCLVKDYFPEPVTVSWNSGALTSGVHTFPAVLQSSGLYSLSSVVTVPSSSLGTKTYTCNVDHKPSNTKVDKRVESKYGPPCPSCPAPEFLGGPSVFLFPPKPKDTLMISRTPEVTCVVVDVSQEDPEVQFNWYVDGVEVHNAKTKPREEQFNSTYRVVSVLTVLHQDWLNGKEYKCKVSNKGLPSSIEKTISKAKGQPREPQVYTLPPSQEEGGGGSGGGGSAPLKIQAYFNETADLPCQFANSQNLSLSELVVFWQDQENLVLNEVYLGKERFDSVDSKYMGRTSFDSDSWTLRLHNLQIKDKGRYQCIIHHKKPTGMINIHQMNSELSVLAGGGGSGGGGSVSLTCLVKGFYPSDIAVEWESNGQPENNYKTTPPVLDSDGSFFLYSRLTVDKSRWQEGNVFSCSVMHEALHNHYTQKSLSLSLGK
chain 2: QSALTQPASVSGSPGQSITISCTGTSSDVGGYNYVSWYQQHPGKAPKLMIYDVSNRPSGVSNRFSGSKSGNTASLTISGLQAEDEADYYCSSYTSSSTRVFGTGTKVTVLGQPKANPTVTLFPPSSEELQANKATLVCLISDFYPGAVTVAWKADGSPVKAGVETTKPSKQSNNKYAASSYLSLTPEQWKSHRSYSCQVTHEGSTVEKTVAPTECS
B8: KN035-IgG1 (D265A) (Fc fusion, not shown: a dimerising Fc or GST)
VHH: QVQLVESGGGLVQPGGSLRLSCAASGFTFSRRCMAWFRQAPGKERERVAKLLTTSGSTYLADSVKGRFTISRDNSKNTVYLQMNSLRAEDTAVYYCAADSFEDPTCTLVTSSGAFQYWGQGTLVTVSS
notes: Control; with D265A mutation in heavy chain constant domain; also called KN035-PDL1

How the values were obtained:
Assay in all cases: SPR Biacore T200; binder captured on protein A chip, target as analyte
[1] = target: T1, 6×Histidine-tagged human PD-L1 protein (hPDL1-His) (human, UniProt Q9NZQ7 19-238)
T1 construct: also called hPL1-His; His-tagged human PD-L1
T1 sequence (Q9NZQ7 19-238 limits assumed): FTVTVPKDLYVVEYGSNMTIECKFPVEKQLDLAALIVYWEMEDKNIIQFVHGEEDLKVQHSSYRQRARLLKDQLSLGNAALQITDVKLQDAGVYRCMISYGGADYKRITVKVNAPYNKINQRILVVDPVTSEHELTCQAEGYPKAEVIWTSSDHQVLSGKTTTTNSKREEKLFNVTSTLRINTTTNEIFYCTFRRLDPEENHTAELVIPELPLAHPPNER
Description: (§1) Binding affinities of the fusion proteins against human CTLA4 (hCTLA4-His) or human PD-L1 (hPDL1) were measured by surface plasmon resonance (SPR) using Biacore™ T200 biosensor equipped with pre-immobilized protein A sensor chips. A CTLA4 antibody CT4-4G12-IgG1 (CT4) was used as a control. ATOR1015-CD86 (CD86) and KN035-IgG1 (with D265A mutation in heavy chain constant domain) were also used as controls.

[2] = target: T1, 6×Histidine-tagged human PD-L1 protein …; remark: listed apart in the source
[3] = target: human CTLA4 (hCTLA4-His) (human, UniProt P16410 36-161, limits assumed)
Sequence of human CTLA4 (hCTLA4-His) (P16410 36-161 limits assumed): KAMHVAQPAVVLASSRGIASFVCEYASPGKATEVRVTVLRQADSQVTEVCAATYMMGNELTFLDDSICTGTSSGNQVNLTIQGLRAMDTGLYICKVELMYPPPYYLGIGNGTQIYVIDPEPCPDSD
Description: as §1

Binder | Kd [1] [nM] | koff [1] [s⁻¹] | kon [1] [M⁻¹ s⁻¹] | Kd [3] [nM] | koff [3] [s⁻¹] | kon [3] [M⁻¹ s⁻¹] | also measured
B1 | 11.7 | 0.00231 | 197000 |  |  |  | 
B2 | 20.4 | 0.0019 | 92700 |  |  |  | 
B3 | 14.1 | 0.00687 | 487000 |  |  |  | 
B4 |  |  |  |  |  |  | Kd [2]: 0.493 nM; koff [2]: 0.000879 s⁻¹; kon [2]: 1.78e+06 M⁻¹ s⁻¹
B5 |  |  |  | 1.02 | 0.000297 | 291000 | 
B6 |  |  |  | 1.74 | 0.000693 | 397000 | 
B7 |  |  |  | 1.88 | 0.000684 | 364000 | 
B8 | 11.5 | 0.0204 | 1.78e+06 |  |  |  | 
